Experimental data as given in the Immune Epitope Database (IEDB).

Assays:
HLA-B*15:09 = assay: IEDB peptide-MHC binding, purified MHC/direct/fluorescence; filed as Kd, often an IC50 or EC50 that approximates it; ≥ and ≤ were set here for values at or beyond the usual limits of such assays; conditions: source organism: Francisella tularensis subsp. tularensis FSC033
HLA-A*11:01 = assay: as above
HLA-B*58:01 = assay: as above
HLA-A*68:02 = assay: as above
HLA-A*26:03 = assay: as above
HLA-B*57:01 = assay: as above
HLA-B*39:01 [1] = assay: as above; conditions: source organism: Francisella tularensis subsp. tularensis FSC033
HLA-A*31:01 = assay: as above
HLA-A*02:01 = assay: as above
HLA-A*69:01 [2] = assay: as above
HLA-B*15:01 = assay: as above
HLA-B*08:01 = assay: as above; conditions: source organism: Francisella tularensis subsp. holarctica LVS
HLA-B*07:02 = assay: as above
HLA-B*18:01 [3] = assay: as above
HLA-A*26:01 = assay: IEDB peptide-MHC binding, purified MHC/competitive/fluorescence; filed as Kd, often an IC50 or EC50 that approximates it; ≥ and ≤ were set here for values at or beyond the usual limits of such assays
HLA-A*01:01 [4] = assay: as above; conditions: source organism: Francisella tularensis subsp. tularensis FSC198
HLA-A*26:02 = assay: as above; conditions: source organism: Francisella tularensis subsp. tularensis FSC198
HLA-A*23:01 = assay: IEDB peptide-MHC binding, purified MHC/direct/fluorescence; filed as Kd, often an IC50 or EC50 that approximates it; ≥ and ≤ were set here for values at or beyond the usual limits of such assays; conditions: source organism: Choclo virus
HLA-A*02:19 = assay: as above; conditions: source organism: Choclo virus
HLA-A*01:01 [5] = assay: as above
HLA-C*03:03 = assay: as above; conditions: source organism: Orthohantavirus khabarovskense
HLA-C*08:02 = assay: as above; conditions: source organism: Orthohantavirus khabarovskense
HLA-A*03:01 = assay: as above
HLA-A*24:03 = assay: as above; conditions: source organism: Choclo virus
HLA-C*12:03 = assay: as above; conditions: source organism: Orthohantavirus khabarovskense
HLA-A*02:12 = assay: as above; conditions: source organism: Choclo virus
HLA-A*02:03 = assay: as above; conditions: source organism: Choclo virus
HLA-B*35:01 = assay: IEDB peptide-MHC binding, purified MHC/competitive/fluorescence; filed as Kd, often an IC50 or EC50 that approximates it; ≥ and ≤ were set here for values at or beyond the usual limits of such assays; conditions: source organism: Orthohantavirus khabarovskense
HLA-B*27:03 = assay: as above; conditions: source organism: Orthohantavirus khabarovskense
HLA-B*39:01 [6] = assay: as above; conditions: source organism: Orthohantavirus khabarovskense
HLA-A*69:01 [7] = assay: as above; conditions: source organism: Orthohantavirus khabarovskense
HLA-B*46:01 [8] = assay: as above; conditions: source organism: Orthohantavirus khabarovskense
HLA-B*18:01 [9] = assay: as above; conditions: source organism: Orthohantavirus khabarovskense
HLA-B*40:01 = assay: IEDB peptide-MHC binding, purified MHC/direct/fluorescence; filed as Kd, often an IC50 or EC50 that approximates it; ≥ and ≤ were set here for values at or beyond the usual limits of such assays; conditions: source organism: Marburg virus - Musoke, Kenya, 1980
HLA-B*15:17 = assay: as above; conditions: source organism: Marburg virus - Musoke, Kenya, 1980
HLA-B*08:02 = assay: as above; conditions: source organism: Orthomarburgvirus marburgense
HLA-B*27:05 = assay: as above; conditions: source organism: Marburg virus - Musoke, Kenya, 1980
HLA-B*46:01 [10] = assay: as above; conditions: source organism: Marburg virus - Musoke, Kenya, 1980
HLA-B*48:01 = assay: as above; conditions: source organism: Marburg virus - Musoke, Kenya, 1980
HLA-B*83:01 = assay: IEDB peptide-MHC binding, purified MHC/competitive/fluorescence; filed as Kd, often an IC50 or EC50 that approximates it; ≥ and ≤ were set here for values at or beyond the usual limits of such assays; conditions: source organism: human gammaherpesvirus 4
HLA-C*14:02 = assay: as above; conditions: source organism: human gammaherpesvirus 4
HLA-B*45:06 = assay: as above; conditions: source organism: human gammaherpesvirus 4
HLA-A*68:23 = assay: as above; conditions: source organism: human gammaherpesvirus 4
HLA-B*15:42 = assay: as above; conditions: source organism: human gammaherpesvirus 4
[11] = source organism: Francisella tularensis subsp. holarctica LVS
[12] = source organism: Francisella tularensis subsp. tularensis FSC033
[13] = source organism: Orthohantavirus andesense
[14] = source organism: Marburg virus - Musoke, Kenya, 1980

## EFKQILTDF
HLA-B*15:09
  Kd: ≥ 20 µM
HLA-A*11:01; [11]
  Kd: ≥ 20 µM
HLA-B*58:01; [11]
  Kd: ≥ 20 µM
HLA-A*68:02; [11]
  Kd: ≥ 20 µM
HLA-A*26:03; [12]
  Kd: ≥ 20 µM
HLA-B*57:01; [11]
  Kd: ≥ 20 µM
HLA-B*39:01 [1]
  Kd: ≥ 20 µM
HLA-A*31:01; [11]
  Kd: ≥ 20 µM
HLA-A*02:01; [11]
  Kd: ≥ 20 µM
HLA-A*69:01 [2]; [11]
  Kd: ≥ 20 µM
HLA-B*15:01; [11]
  Kd: ≥ 20 µM
HLA-B*08:01
  Kd: 6 µM
HLA-B*07:02; [11]
  Kd: ≥ 20 µM
HLA-B*18:01 [3]; [12]
  Kd: 1.03 µM
HLA-A*26:01; source organism: Francisella tularensis subsp. tularensis FSC198
  Kd: ≥ 20 µM
HLA-A*01:01 [4]
  Kd: ≥ 20 µM
HLA-A*26:02
  Kd: 0.457 µM

## FSLPSSSSY
HLA-B*58:01; [13]
  Kd: 0.0218 µM
HLA-A*23:01
  Kd: ≥ 20 µM
HLA-A*02:19
  Kd: ≥ 20 µM
HLA-A*68:02; source organism: Choclo virus
  Kd: ≥ 20 µM
HLA-A*01:01 [5]; [13]
  Kd: 0.377 µM
HLA-C*03:03
  Kd: 0.028 µM
HLA-C*08:02
  Kd: ≥ 20 µM
HLA-A*03:01; source organism: Choclo virus
  Kd: ≥ 20 µM
HLA-A*24:03
  Kd: ≥ 20 µM
HLA-C*12:03
  Kd: 0.043 µM
HLA-A*02:12
  Kd: ≥ 20 µM
HLA-A*02:03
  Kd: ≥ 20 µM
HLA-B*35:01
  Kd: ≤ 0.0001 µM
HLA-A*26:01; source organism: Orthohantavirus khabarovskense
  Kd: ≥ 20 µM
HLA-B*27:03
  Kd: ≥ 20 µM
HLA-B*39:01 [6]
  Kd: ≥ 20 µM
HLA-A*69:01 [7]
  Kd: ≥ 20 µM
HLA-B*46:01 [8]
  Kd: 0.0707 µM
HLA-B*18:01 [9]
  Kd: ≥ 20 µM

## KLDFIRNTK
HLA-A*11:01; [14]
  Kd: 0.604 µM
HLA-B*58:01; [14]
  Kd: ≥ 20 µM
HLA-B*40:01
  Kd: ≥ 20 µM
HLA-A*68:02; [14]
  Kd: ≥ 20 µM
HLA-A*01:01 [5]; [14]
  Kd: ≥ 20 µM
HLA-A*26:03; source organism: Orthomarburgvirus marburgense
  Kd: ≥ 20 µM
HLA-B*15:17
  Kd: ≥ 20 µM
HLA-B*57:01; [14]
  Kd: ≥ 20 µM
HLA-A*03:01; [14]
  Kd: 0.0444 µM
HLA-A*31:01; [14]
  Kd: 2.16 µM
HLA-A*02:01; [14]
  Kd: ≥ 20 µM
HLA-A*69:01 [2]; [14]
  Kd: ≥ 20 µM
HLA-B*08:02
  Kd: ≥ 20 µM
HLA-B*15:01; [14]
  Kd: ≥ 20 µM
HLA-B*27:05
  Kd: ≥ 20 µM
HLA-B*46:01 [10]
  Kd: ≥ 20 µM
HLA-B*07:02; [14]
  Kd: ≥ 20 µM
HLA-B*48:01
  Kd: ≥ 20 µM
HLA-B*18:01 [3]; [14]
  Kd: ≥ 20 µM

## YTGAMTSKF
HLA-B*83:01
  Kd: ≥ 5 µM
HLA-C*14:02
  Kd: 0.394 µM
HLA-B*45:06
  Kd: ≥ 5 µM
HLA-A*68:23
  Kd: 0.0715 µM
HLA-B*15:42
  Kd: ≥ 5 µM
